Changes are numbered by the printed parent chain.
B1: optimized anti-E-selectin antibody 1282 (protein)
chain 1: EVQLVESGGGLVQPGGSLRLSCAASGYAIRSAYMHWVRQAPGKGLEWVARIDPANGNTIYVDSVEGRFTISADNAKNSAYLQMNSLRAEDTAVYYCAMDLYSTSEYWGQGTLVTVSSASTKGPSVFPLAPSSKSTSGGTAALGCLVKDYFPEPVTVSWNSGALTSGVHTFPAVLQSSGLYSLSSVVTVPSSSLGTQTYICNVNHKPSNTKVDKKVEPKSCDKTHTCPPCPAPEAAGAPSVFLFPPKPKDTLMISRTPEVTCVVVDVSHEDPEVKFNWYVDGVEVHNAKTKPREEQYNSTYRVVSVLTVLHQDWLNGKEYKCKVSNKALPAPIEKTISKAKGQPREPQVYTLPPSREEMTKNQVSLTCLVKGFYPSDIAVEWESNGQPENNYKTTPPVLDSDGSFFLYSKLTVDKSRWQQGNVFSCSVMHEALHNHYTQKSLSLSPG
chain 2: DIQMTQSPSSLSASVGDRVTITCKTSQNIERYLNWYQQKPGKAPKLLIYAASSLQSGVPSRFSGSGSGTDFTLTISSLQPEDFATYFCLQDNAWPLTFGQGTKVEIKRTVAAPSVFIFPPSDEQLKSGTASVVCLLNNFYPREAKVQWKVDNALQSGNSQESVTEQDSKDSTYSLSSTLTLSKADYEKHKVYACEVTHQGLSSPVTKSFNRGEC
B2: optimized anti-E-selectin antibody 1284 (protein)
chain 1: B1 chain 1 with D62E
chain 2: B1 chain 2
B3: optimized anti-E-selectin antibody 1444 (protein)
chain 1: B1 chain 1 with E65T
chain 2: B1 chain 2
B4: optimized anti-E-selectin antibody 1448 (protein)
chain 1: B1 chain 1 with E65K, G66E
chain 2: B1 chain 2

Experiment: AC-SINS self-interaction

Protein	AC-SINS (wavelength of maximum absorbance relative to blank, nm)
B1	1 nm
B2	1 nm
B3	1 nm
B4	1 nm

Source: patent US20240076386
